The target in the assay is T1, αvβ6 integrin (R&D Systems), immobilized (UniProt P06756 31-992; P18564 22-707).
T1 construct: Bought protein captured on the plate by the anti-αv antibody P2W7; also called immobilized αvβ6 integrin
As to the kind of experiment: competitive binding ELISA against biotinylated fibronectin on immobilized αvβ6 integrin. As to the method: Separate competitive binding ELISAs were used to determine the binding affinity of the anti-αᵥβ₆ diabody and Cys-diabody relative to biotinylated fibronectin, a known natural ligand of the αᵥβ₆ integrin. Biotinylation of fibronectin was performed according to the manufacturer's instructions (Amersham Biosciences). The P2W7 antibody (anti-αᵥ, 5 μg/mL, Abcam) was plated into wells (50 μL/well) of a 96-well plate (Maxisorp®, Nunc). The plate was incubated at 37° C. for 1 h then washed with PBS (3×). After washing, the wells were blocked with blocking buffer (PBS, 5% bovine serum albumin (BSA), 1% Tween 20) and the plate was incubated at room temperature for 3 hrs, followed by washing with PBS (3×). The αᵥβ₆ integrin (3 μg/mL, R&D Systems) in conjugate buffer (20 mM Tris, 1 mM MnCl2, 150 mM NaCl, 0.1% Tween, 1% BSA) was added to the wells (50 μL/well). The plate was incubated at room temperature for 1 h and washed with wash buffer (20 mM Tris, 1 mM MnCl2, 150 mM NaCl, 0.1% Tween, 3×). […] Extravidin HRP conjugate was detected using 3,3′,5,5′-tetramethylbenzidine (TMB) substrate (50 μL/well) for 10-15 mins at room temperature. The reaction was terminated by the addition of 1N sulfuric acid (50 μL/well) and the absorbance of each well was measured in a Multiscan Ascent plate reader (Thermo) at 450 nm. […]
(In an ELISA, binding on a coated surface is turned into a signal by an enzyme label.)

T1 sequence (P06756 31-992, chain 1 of 2): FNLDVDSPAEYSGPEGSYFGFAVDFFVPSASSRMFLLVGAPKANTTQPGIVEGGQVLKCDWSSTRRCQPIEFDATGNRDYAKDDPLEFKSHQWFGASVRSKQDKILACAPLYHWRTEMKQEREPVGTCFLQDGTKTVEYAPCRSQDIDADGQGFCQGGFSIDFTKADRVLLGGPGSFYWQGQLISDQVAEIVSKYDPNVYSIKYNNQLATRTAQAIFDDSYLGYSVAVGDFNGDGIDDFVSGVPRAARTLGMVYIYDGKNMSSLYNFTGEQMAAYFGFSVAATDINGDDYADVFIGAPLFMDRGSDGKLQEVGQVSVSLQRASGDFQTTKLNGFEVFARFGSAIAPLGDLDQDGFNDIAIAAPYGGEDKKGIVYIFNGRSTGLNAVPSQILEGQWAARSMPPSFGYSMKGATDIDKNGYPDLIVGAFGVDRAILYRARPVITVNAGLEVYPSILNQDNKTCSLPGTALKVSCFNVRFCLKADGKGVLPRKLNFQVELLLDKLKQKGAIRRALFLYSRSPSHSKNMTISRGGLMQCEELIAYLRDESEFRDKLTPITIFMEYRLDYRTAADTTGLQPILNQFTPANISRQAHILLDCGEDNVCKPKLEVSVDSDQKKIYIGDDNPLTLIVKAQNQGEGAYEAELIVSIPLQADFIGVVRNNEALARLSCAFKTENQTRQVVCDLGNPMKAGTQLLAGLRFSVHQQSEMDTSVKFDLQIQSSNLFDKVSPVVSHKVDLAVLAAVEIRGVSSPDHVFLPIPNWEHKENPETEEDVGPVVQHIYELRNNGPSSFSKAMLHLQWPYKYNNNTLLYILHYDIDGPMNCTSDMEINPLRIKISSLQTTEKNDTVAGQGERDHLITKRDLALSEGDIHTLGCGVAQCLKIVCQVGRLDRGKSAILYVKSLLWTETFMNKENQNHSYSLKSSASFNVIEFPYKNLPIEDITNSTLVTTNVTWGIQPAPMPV
T1 sequence (P18564 22-707, chain 2 of 2): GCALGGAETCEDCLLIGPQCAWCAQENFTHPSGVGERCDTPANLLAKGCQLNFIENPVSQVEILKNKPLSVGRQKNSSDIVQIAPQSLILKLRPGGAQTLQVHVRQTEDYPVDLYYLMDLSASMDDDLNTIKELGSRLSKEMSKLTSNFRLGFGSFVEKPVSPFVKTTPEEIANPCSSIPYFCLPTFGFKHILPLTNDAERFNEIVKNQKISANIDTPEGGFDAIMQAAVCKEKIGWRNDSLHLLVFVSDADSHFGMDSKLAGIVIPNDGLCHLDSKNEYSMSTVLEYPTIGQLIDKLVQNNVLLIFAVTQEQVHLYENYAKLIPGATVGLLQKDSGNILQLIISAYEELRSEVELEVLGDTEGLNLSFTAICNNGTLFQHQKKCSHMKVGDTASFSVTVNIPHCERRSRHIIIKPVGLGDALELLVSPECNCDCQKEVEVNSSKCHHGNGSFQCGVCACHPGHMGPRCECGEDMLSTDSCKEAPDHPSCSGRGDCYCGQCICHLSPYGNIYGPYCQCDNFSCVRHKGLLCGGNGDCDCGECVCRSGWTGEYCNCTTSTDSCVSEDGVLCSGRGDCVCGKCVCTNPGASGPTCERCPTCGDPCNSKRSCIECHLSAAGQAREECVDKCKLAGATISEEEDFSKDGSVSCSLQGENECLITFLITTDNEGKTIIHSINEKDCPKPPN

B1: anti-αvβ6 Cys-diabody (other)
scFv: EVQLVESGGGLVQPGGSLRLSCAASGFTFSRYVMSWVRQAPGKGLEWVASISSGGRMYYPDTVKGRFTISRDNAKNSLYLQMNSLRAEDTAVYYCARGSIYDGYYVFPYWGQGTLVTVSSGGSEIVLTQSPATLSLSPGERATLSCSASSSVSSSYLYWYQQKPGQAPRLLIYSTSNLASGIPARFSGSGSGTDFTLTISSLEPEDFAVYYCHQWSTYPPTFGGGTKVEIKHHHHHHGGC
modifications: C-terminal engineered cysteines of the two chains form an interchain disulfide
notes: Covalent dimer; also called disulfide-stabilized anti-αvβ6 Cys-diabody; B6DiaR-G2S-Cys
One may read the IC50 as the concentration needed to halve the response being measured. Read a high IC50 as weaker potency in that assay. In the case of B1, the IC50 was determined as 0.6 nM.

B2: anti-αvβ6 diabody (other)
scFv: EVQLVESGGGLVQPGGSLRLSCAASGFTFSRYVMSWVRQAPGKGLEWVASISSGGRMYYPDTVKGRFTISRDNAKNSLYLQMNSLRAEDTAVYYCARGSIYDGYYVFPYWGQGTLVTVSSGGSEIVLTQSPATLSLSPGERATLSCSASSSVSSSYLYWYQQKPGQAPRLLIYSTSNLASGIPARFSGSGSGTDFTLTISSLEPEDFAVYYCHQWSTYPPTFGGGTKVEIKHHHHHH
notes: Non-covalent dimer of two VH-G2S-VL-His6 chains (diabody), secreted from 293-F cells; also called B6DiaR-G2S; parental anti-αvβ6 diabody
The molecule B2 returned an IC50 of 0.8 nM.

The values are drawn from patent US20160368993A1 (University of California, published 2016).
